Experimental data: paper PMC2710984

Target: GST–BIR3 fusion protein (XIAP BIR3 domain)
Test: FMAT bead-based fluorescence competition assay

IC50: > 10 µM
Substance: Smac N-terminal tripeptide AVP (compound 5)
